For one substance, stoichiometry N results are on record in paper PMC11860714.

In this assay the target is 329 SOSIP.v8.2 Env trimer (HIV-1 clade C). In words: native gel or EMSA; BN-PAGE, NuPAGE 4–12% Bis-Tris gels; 2 µg SOSIP trimers or equimolar SOSIP–ferritin (2.5 µg) and SOSIP-I53-50 (3.2 µg) NPs.

Turning to “329 SOSIP.v8.2 Env trimer (domain or fragment)”, the stoichiometry N (as a rule, a count of units in the complex or per binding partner) came out at 3.
